Experimental findings from the DeepSol protein solubility set are described below.

This data set can be described thus: soluble on expression in E. coli; label from the status in PepcDB or PDB records.
“MPPFYKRLHRKKDGRELFLYGLMPLEGPPLPEDAEPFRPAPHLRYHPLRGEWVVYAAHRQGRTFLPPKEHCPLCPSREGGFPTEIPFPSFQVAVFENRFPSFVEEAPPPPEGLPVPAGRALGRCEVVVYTPAHTGSLATLTEEERLLLAWAWRDRYEALYALPGVRFVMPFENRGEAVGVTLHHPHGQIYAYPFVPPVLERESQAFRERPVLLRLFPSLGPYVVDEEEGFLAFVPPFARYPFEVWVAPVERHPGPWTFSEGEMAAFARLLGRVVARYDALFGEPFPYVMVFHAAPLGEEATFHFHVEFYPPRRTRDKLKFLAGTELGAGTFVVDALPEETAKALRAALP”: the “soluble on expression in E. coli” value was “soluble”.

“PLVKISGSSTVFPITEAVSEDFQAAKKGAIMVTAGIAGTGGGFKKFCRDEVDIVNASRPILSSEMEQCRQNGVQYIEMPIAFDALTVVVNPGNDWIKSMTVAELKKIWEPAAQEKILNWNQVNPAWPNARIKLFGAGADS”: the “soluble on expression in E. coli” value is recorded as “not soluble”.

In the case of “MPAYHSKFDTELKVLPLGNTNMGKLPIRTNFKGPAPQTNQDDIIDEALTYFKPNIFFREFEIKGPADRTMIYLIFYITECLRKLQKSPNKIAGQKDLHALALSHLLPIPGENGFPLNSMYKAPQSKPDEDEMRAYLQQIRQEIGARLCDLAFPDPQDRPSKWWLCFARRRFMDKGLVGQGVNL”, the “soluble on expression in E. coli” value is listed as “soluble”.

With “MEESDQTVLLPNVENEIGSFYHDMPDEKLLRHIKAIFDEASLRPSLTKNVPSTSSQVTEELNKVEIRDPKHEMQDEQYLSIFENPSGVQYNQADGSFSWNNRFHSDNSVQYINVLNNYGCEGADTLLNQSDSSDETDESIEERRTPRGNRQSRSNLTSKPSAKYWTKRGGDPIVNCSCSICGSKFSTIRCLLDHRHQEHSLKDMMMCGLCGKEFSKRTHIYLHLSQEYKVYHCDGCNTSFASKWHLEKHRCKENETIDDKKRRRTGRVNAEEIKVIKEEIQDEEFGGVVLSNENHEKSKEDRFQFACVLCGKKYQHYHWLLKHRTKCLETTDEIQEFKCNVCYRRYNSSFWFERHMEKCNSSTALPPALLDQTISCPNCHKKYQNEYWFDYHKKHCPDITPALSDVHLDVNSLRDRRPREGEISVVPDVNLFGIEPEREDDNDDDEDADATISSSSSSTGNLVNIPCSICGKFCVGVASLLHHRKQIHGLTAMLTCGVCTKKFNTLSSIRRHMSMEYSIFRCQQCGRNCIDRTTLDRHECFKPYKIRDKRLFNIQNISVLKCPDCRATFANLNVLSEHRKTCQYGNVFDNIQQPGSSSLRQHHRSDTNGAALQRKITSRVRLDSNTPEKWTCRDCHASFHNLQALCSHRHESHGKEMFQCNNCSETLPNYRALHDHNMMHCRNNRSTNETTTRRYSEEDINYDYMDNVQIFVVEESEIFIPIQPHFSRK”, the “soluble on expression in E. coli” value is on record as “not soluble”.

Consider “MGSDKIHHHHHHMDYRQPDLSVITVNYNGFHDTCEFIDSWAATVFSVSYEMIVIDNGSTANEAALLQKTYPFIQAVRSERNLGFAGGNNLGINLAKGKYLFLLNNDVCMVKDAIPLLIKRLLSSDKIAGVSPLIRDYAEPHAIQFAGYTQLSPITLRNRAIGKGKINKDHYPAQKTPYLHGAAMLLKKTIIDKLSLMPEEYFLYYEELDWCTYINREGYELWYDPACEIWHKDSSSTGKESPLKYYYLSRNRLLYAYRNLFDWKLPVSILYQTMIVCPKNILTALGKGKKAIAKAHWEGTKAFFKLRNKDKQP”, for which the “soluble on expression in E. coli” value is “not soluble”.

Turning to “MGSDKIHHHHHHAEDYMETDKGHDTLTLTVNQQEIVLNEKNHTQEALTLSWTTGTNYGSGNRISYTLEIAKAGTDFARAYSVDLGTGTYQWTKKTEELNQFLNTQLGVGYAEKVSLEARITATVAGMEEKEQRATVALDVTTYQPVTPTLYLIGEAAPNGWSADQATPMERTDNGQFTWTGKLNTGVFKFITTLGEFLPSYNRDAAAGEELRLIYRTSGDEPDEPFTVSKEATYIVKVDLLDLTMTMTETENIGWRFEEFYIVGSFTGDNGWGFEALSKDAVQMNLFHYGAVIPWKADGDFKFTSVTDFGQSDAFFHPTEGNAPYTSTSVVLGGEDNKWQMKESECGKAYKVLFLTAKGKEKMLMRPFTPYEGLYLVGDATPNGWSIDNATPMAKSADSPYIFTWSGTLNTGEMKISCDKQSDWNGDWLMADKSGKAPTGEVETALFTSKTDAELKNMYPDTDLGSLDNKWNIQEAGSYRITIDQLKETISIVKQ”, the “soluble on expression in E. coli” value was “not soluble”.

Take “MNVPSTSSTRGYAKYQIRSSGMPRVLANESDVFTLDDVDVDEETDELKPNRITITKEEEKSRLVECNLDSDEEEDKTPPKEDDKGQNIRLSSKNSSTVESKERCRLRDSFDLDNDDSLSDDLDLLPPIPGAPNANSSLCSKLHRFNCCNPRIPSKCTIM”: the “soluble on expression in E. coli” value is reported as “soluble”.

Take “MGSDKIHHHHHHMIFLNRYGFPDQSATSRMISSLAMSMAQRGMNVTVVTSREIHNHPGSVLPATETVRGIHIQRLSSGRFGRHNLMRRSIDYLLFQVLAFAWLLRNVRATDTVIVCTDPPLLSVMSSIAIRLKGALMVNWIMDLFPETAIELGFFRKRARWLAPWLTRARNWSLRSPGMVVCPTEKMAEFLFTQGIAKDRVSVLHHWSDGEEIYPVLPEGNSLRKAWGLQDVFVVGYSGNFGRAHDFGTMLAAAKRLEHRPDIRFLLIGGGHQHAAVKTVVQDLGLQNVIFKPLQPVENLAESLSVADVHLVSLLPELEHCIIPSKFYGIMAAGRPTIFIGDPDGEVPRILRAKRCGSNVEIGETDKLTGIIEELCDDPDTTKAMGDAARRLLCTDYSREKAADAWAALIAGLQTVEPSRPHLAQGISP”: the “soluble on expression in E. coli” value is “not soluble”.

As to “MSLKLTIGVSYPTANSPFWNAYTRFIDEGSHQLGVYINAVSAEEDEQKQLSDVETLINQGIDGLIVTPQSTSIAPTLLRIATQANIPVVVVDRYPGYAPGQNKNADYVAFLGPNNEKAGSGIAEALMAGGGSKFLALGGMPGNSVAQGRKAGLESALTAVGHRLVQFQYAGDSEDKGLAAAENMLQAHPAGDANAIWCFNDKLCQGAIKAVYNANREKEFIFGGMDLTPQAIAAIENGLYTVSLGAHWLEGGFGLAILYRKIHGQDPAERMVKLDLLKVDKSNVAKFKARYEGHHHHHH”, the “soluble on expression in E. coli” value was “not soluble”.

On to “MGSDKIHHHHHHWLDLAPSTQVDTETSINVLSDIEFTLNGIYSTMQSSDAYSGRLVYYGDVTGDDMQAVSSTKRTGNYYRFNFTKDNGPSSHWSYLYSIIQNCNLILMNVDKLSIDEDETEYKNDLKGQALAIRGMALFDLTRIFGYPYLKDNGASLGVPIVKELSTIDSKPARNTVAECYTEIISDLKNSTELLSGDFNKGKVNRWAAMTLLSRVYLYKGEYNEALTMAENAIKGAEKEGYALWTNEEYPTAWGNDASASNPGEILFEIVNLTTDSPGKESMGYLNSYNGYDDMCITCSFYQLLKKDPKDVRLKILSFDKKYYAYVNKYQPQQGENITDANIPLIRLSEAYLNAAEAAVQTGDNAKAVKYLNSIVQRANPENSVEGKTLTLENVLDERRKELVAEGHRMYDVIRNGMTVKRIDVKDSDINKTKHNTAYMEYDWNFHKILLPIPKKEMDANPNMKQNPGYVD”, for which the “soluble on expression in E. coli” value is reported as “not soluble”.

Take “MSPAPVQVMGVLNVTDDSFSDGGCYLDLDDAVKHGLAMAAAGAGIVDVGGESSRPGATRVDPAVETSRVIPVVKELAAQGITVSIDTMRADVARAALQNGAQMVNDVSGGRADPAMGPLLAEADVPWVLMHWRAVSADTPHVPVRYGNVVAEVRADLLASVADAVAAGVDPARLVLDPGLGFAKTAQHNWAILHALPELVATGIPVLVGASRKRFLGALLAGPDGVMRPTDGRDTATAVISALAALHGAWGVRVHDVRASVDAIKVVEAWMGAERIERDG”: the “soluble on expression in E. coli” value is listed as “soluble”.

Consider “MAAQSDRYDAVLVQYGLRPVRMEQRGKAVKVYTNRGVFALKPLESEQEAAAVWQSLQHGGPRCLPLYLTRRRSLFATEGGRLYYLQAWHDGESKVEKDAADAFFRELARLHRATVRTIEVSEEEAAAYRKQKKDEWQRARTVWEERIERYEAAWYMSPFQLQCCTYFHEVMRAYSFAEERLDVWEETLKETKQWRIAWVHGKARLSHYIPPYWISWERAHWNSPLFDVIAALRFHVQTMPPLGREWLEGMEEYEKELPLSDGERAFLYSHLAEPRGFVRCLERYEAASRNERNEREYVAALQRRYLAFKNMEALVMHLVQRDAARQQEEAVDNEPPSDESSNG”, for which the “soluble on expression in E. coli” value was “not soluble”.
